In article PMC12691643:

What was measured:
Test in all cases: affinity purification with mass spectrometry; HA-tagged TgWIP variants pulled down by the HA tag from lysates of DC2.4 cells infected 4 h at MOI 7; host partners by mass spectrometry; values are negative fold changes in peptide counts of the mutant immunoprecipitations relative to TgWIP^WT
[1] = molecular target: TgWIP^(PRR2 mut), HA-tagged (Toxoplasma gondii)
[2] = molecular target: TgWIP^Y150A/Y199A, HA-tagged (Toxoplasma gondii)
[3] = molecular target: TgWIP^(PRR3 mut), HA-tagged (Toxoplasma gondii)
[4] = molecular target: TgWIP^(WIRS mut), HA-tagged (Toxoplasma gondii)

Lrrk1, endogenous in murine DC2.4 cells (from UniProt Q3UHC2 1-2014) (natural protein)
negative fold change in peptide counts relative to TgWIP^WT [1]: 3 fold
negative fold change in peptide counts relative to TgWIP^WT [2]: 1 fold
negative fold change in peptide counts relative to TgWIP^WT [3]: 3 fold
negative fold change in peptide counts relative to TgWIP^WT [4]: 1 fold

Nck2, endogenous in murine DC2.4 cells (from UniProt O55033 1-380) (natural protein)
negative fold change in peptide counts relative to TgWIP^WT [1]: 1 fold
negative fold change in peptide counts relative to TgWIP^WT [2]: 1 fold
negative fold change in peptide counts relative to TgWIP^WT [3]: 3 fold
negative fold change in peptide counts relative to TgWIP^WT [4]: 1 fold

Cyfip1, endogenous in murine DC2.4 cells (from UniProt Q7TMB8 1-1253) (natural protein)
negative fold change in peptide counts relative to TgWIP^WT [1]: 2 fold
negative fold change in peptide counts relative to TgWIP^WT [2]: 1 fold
negative fold change in peptide counts relative to TgWIP^WT [3]: 5 fold
negative fold change in peptide counts relative to TgWIP^WT [4]: 2 fold

Pstpip1, endogenous in murine DC2.4 cells (from UniProt P97814 1-415) (natural protein)
negative fold change in peptide counts relative to TgWIP^WT [1]: 8 fold
negative fold change in peptide counts relative to TgWIP^WT [2]: 1 fold
negative fold change in peptide counts relative to TgWIP^WT [3]: 5 fold
negative fold change in peptide counts relative to TgWIP^WT [4]: 1 fold

B1: Git1, endogenous in murine DC2.4 cells (natural protein)
chain: MSRKGPRAEVCADCSAPDPGWASISRGVLVCDECCSVHRSLGRHISIVKHLRHSAWPPTLLQMVHTLASNGANSIWEHSLLDPAQVQSGRRKANPQDKVHPIKSEFIRAKYQMLAFVHKLPCRDDDGVTAKDLSKQLHSSVRTGNLETCLRLLSLGAQANFFHPEKGTTPLHVAAKAGQTLQAELLVVYGADPGSPDVNGRTPIDYARQAGHHELAERLVECQYELTDRLAFYLCGRKPDHKNGHYIIPQMADRSRQKCMSQSLDLSELAKAAKKKLQALSNRLFEELAMDVYDEVDRRENDAVWLATQNHSTLVTERSAVPFLPVNPEYSATRNQGRQKLARFNAREFATLIIDILSEAKRRQQGKSLSSPTDNLELSARSQSELDDQHDYDSVASDEDTDQEPLPSAGATRNNRARSMDSSDLSDGAVTLQEYLELKKALATSEAKVQQLMKVNSSLSDELRRLQREIHKLQAENLQLRQPPGPVPPPSLPSERAEHTLMGPGGSTHRRDRQAFSMYEPGSALKPFGGTPGDELATRLQPFHSTELEDDAIYSVHVPAGLYRIRKGVSASSVPFTPSSPLLSCSQEGSRHASKLSRHGSGADSDYENTQSGDPLLGLEGKRFLELSKEDELHPELESLDGDLDPGLPSTEDVILKTEQVTKNIQELLRAAQEFKHDSFVPCSEKIHLAVTEMASLFPKRPALEPVRSSLRLLNASAYRLQSECRKTVPPEPGAPVDFQLLTQQVIQCAYDIAKAAKQLVTITTREKKQ
negative fold change in peptide counts relative to TgWIP^WT [1]: 4 fold
negative fold change in peptide counts relative to TgWIP^WT [2]: 2 fold
negative fold change in peptide counts relative to TgWIP^WT [3]: 11 fold
negative fold change in peptide counts relative to TgWIP^WT [4]: 2 fold

B2: Nostrin, endogenous in murine DC2.4 cells (natural protein)
chain: MRDPLTDCSYNKVYKSLKEFAQHGDNFCKQITSVLQQRANLEISYAKGLQKLAVRLSKALQSTKKNCLSTAWAWASESMKSAADLHQKLGKAIELEAIKPTHQVLSMQEKKRKSLDNEVEKTANLVINNWNQQIKAKKKLMMSTKKHEALFHLVESSKQSLTQKEKQKLLNKLKKSTEKLEKEDESYYQKNMAGYSTRLKWESTLENCYKSMLELEKERIQLLCNNLNQYSQHISLFGQTLTTCHTQIHCAISKVDVEKDIQALMEETAILSIENKSELLLADYFEEDPKNPMDKERRKSLLKPKLGRLQRDIEKASRDKEGLERKLKALASSSSFSDAKSQKDMETLMDENSLKLDLLQANSYKLSSVLADLEQRPKPCHPCSTCIFKWKEKEHSHTYVKISRPLLTKRLEKAESKAPAGGQNNPSSSPSGSTVSQASKHLCKALYTFQARQDDELNLEKGDIVTVHEKKEEGWWFGSLKGKRGHFPAAYVEELPPKAGNTATQA
negative fold change in peptide counts relative to TgWIP^WT [1]: 6 fold
negative fold change in peptide counts relative to TgWIP^WT [2]: 1 fold
negative fold change in peptide counts relative to TgWIP^WT [3]: 5 fold
negative fold change in peptide counts relative to TgWIP^WT [4]: 3 fold
